In the Human Domainome abundance scans (Beltran et al. 2025):
± gives the uncertainty stated by the source.

experiment: abundance fitness (aPCA) (normalised: wild type 0, dead -1); higher = more abundant; growth selection in yeast, the domain comes from the species named; details: Homo sapiens

Substance | abundance fitness
SAFB-like transcription modulator V44Y, Q9NWH9 | -0.258 ± 0.081
SAFB-like transcription modulator V47A, Q9NWH9 | -0.025 ± 0.058
SAFB-like transcription modulator V47C, Q9NWH9 | -0.074 ± 0.037
SAFB-like transcription modulator V47D, Q9NWH9 | -0.001 ± 0.065
SAFB-like transcription modulator V47E, Q9NWH9 | 0.022 ± 0.068
SAFB-like transcription modulator V47F, Q9NWH9 | -0.447 ± 0.044
SAFB-like transcription modulator V47G, Q9NWH9 | -0.28 ± 0.038
SAFB-like transcription modulator V47H, Q9NWH9 | -0.329 ± 0.081
SAFB-like transcription modulator V47I, Q9NWH9 | 0.051 ± 0.066
SAFB-like transcription modulator V47K, Q9NWH9 | 0.003 ± 0.063
SAFB-like transcription modulator V47L, Q9NWH9 | -0.125 ± 0.038
SAFB-like transcription modulator V47M, Q9NWH9 | 0.013 ± 0.061
SAFB-like transcription modulator V47N, Q9NWH9 | -0.079 ± 0.045
SAFB-like transcription modulator V47P, Q9NWH9 | -0.585 ± 0.056
SAFB-like transcription modulator V47Q, Q9NWH9 | 0.019 ± 0.047
SAFB-like transcription modulator V47R, Q9NWH9 | -0.207 ± 0.043
SAFB-like transcription modulator V47S, Q9NWH9 | -0.152 ± 0.048
SAFB-like transcription modulator V47T, Q9NWH9 | 0.089 ± 0.064
SAFB-like transcription modulator V47Y, Q9NWH9 | -0.525 ± 0.044
